Measurements taken from article doi:10.1101/2022.03.30.486221 (bioRxiv, 2022).

Molecular target: the molecule itself
Assay: SEC

B1: recombinant His6-tagged StTGA2.1 (natural protein, UniProt A0A9F1U434 1-270, looked up)
chain: MDAMGDREGPRLVSSTALWRGDRRPAQVVQVSQLEQDFQRAPQQRESGSLPFDTEYSRWLEEHTKHINELRTAVNSHASDPELRSMVDSVIAHYDEVYRMKANAAKGNVEHLLSGMWKTPAERCSMWIGDFRPSLLLKLLVNQVEPLTEQQLIGIVNLQQSSQQAEDALSQDMEAWQQSLEVTLAYGSLATEGSSGDAAYNISQMAMAMGILGTLEGFLRQADNLRQQTLQQMHRMLTTRQSARALLAISEYFSRLRALSSLWLARPREQ
  stoichiometry N: 2
